Assay results reported in patent publication US20240336918.
pKd: −log10 of the molar value.

Assays:
LIN28A [1] = molecular target: T1, LIN28A (UniProt Q9H9Z2); assay: EMSA; details: higher-order aggregates above 50 nM
T1 sequence: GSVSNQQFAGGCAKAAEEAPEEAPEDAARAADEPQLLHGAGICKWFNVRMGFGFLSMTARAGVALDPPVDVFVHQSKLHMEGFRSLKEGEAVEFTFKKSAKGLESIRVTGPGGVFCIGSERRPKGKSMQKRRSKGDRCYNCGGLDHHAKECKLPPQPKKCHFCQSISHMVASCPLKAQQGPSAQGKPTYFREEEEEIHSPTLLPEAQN

LIN28A [2] = molecular target: T1, LIN28A; assay: filter; details: transition between unbound and bound at ~10 nM; aggregates retained on PES at 50 nM and above

pre-let-7a miRNA was tested, and the pKd (LIN28A [1]) was 7.60 and the pKd (LIN28A [2]) was 8.00.
